Test results as given in patent US6995019B2, “Fluorescent isothiocyanate (fitc) sinistrin, its production and use” (priority 2000, dated 2006).

Legend:
[1] = background statement on prior art; cited from earlier work
[2] = background statement on prior art; cited from earlier work; remark: listed apart in the source

FITC-inulin
solubility in water [1]: only very slightly soluble in water | blood pressure after injection into an experimental animal [2]: transient reduction in blood pressure | fluorescence (presence of substance) in lung, liver and kidney sections (rat, 30 mg per kg at intervals of 2 days, sacrificed 4 hours after last administration): considerable fluorescence is observed | effect of deposition in the liver (rat, liver, substance found mainly intracellularly): irreversible cell damage (cell death) | effect of deposition in the lung (rat, lung, substance found in the corpuscles): leads to microstenoses and ultimately to embolism | fluorescence (accumulation) in liver, lung and kidneys (rats sacrificed 6 minutes after the injection, rinsed with saline solution): accumulates in the liver, lung and kidneys

inulin
solubility in water [1]: only very slightly soluble in water | blood pressure after injection into an experimental animal [2]: transient reduction in blood pressure
